According to patent publication US20170266254A1 (AILERON THERAPEUTICS, published 2017):
Bridges are numbered along the chain shown (N, C = ends). [ ]: non-standard residue; d: D form. S5 = C=CCCC[C@](C)(N)C(=O)O; Nle = CCCC[C@H](N)C(=O)O

T1: C-terminally 6x Histidine-tagged Beta-Catenin (aa 134-668, 59 KD) (UniProt P35222 134-668)
T1 construct: range 134-668; Armadillo repeat region
T1 sequence: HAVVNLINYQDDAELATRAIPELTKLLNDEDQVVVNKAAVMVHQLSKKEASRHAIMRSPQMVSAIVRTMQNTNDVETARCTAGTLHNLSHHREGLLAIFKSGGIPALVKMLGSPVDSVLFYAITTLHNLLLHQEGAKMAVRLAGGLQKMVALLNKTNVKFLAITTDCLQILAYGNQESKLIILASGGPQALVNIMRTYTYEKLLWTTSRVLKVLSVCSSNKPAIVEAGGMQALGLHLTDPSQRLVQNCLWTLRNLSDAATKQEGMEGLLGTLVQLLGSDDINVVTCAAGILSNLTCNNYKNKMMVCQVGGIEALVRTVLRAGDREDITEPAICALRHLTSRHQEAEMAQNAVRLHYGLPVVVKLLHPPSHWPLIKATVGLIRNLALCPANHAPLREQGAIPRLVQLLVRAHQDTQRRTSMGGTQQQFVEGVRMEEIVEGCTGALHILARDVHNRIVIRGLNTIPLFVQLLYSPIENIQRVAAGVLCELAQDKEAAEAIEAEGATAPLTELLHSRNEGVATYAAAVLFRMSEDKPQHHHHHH

B1: SP11 (peptide)
peptide: Ac-SAERDLA[S5]VKS[S5]LVNESEKR-NH2
modifications: staple 8-12
SMILES: CC(=O)N[C@@H](CO)C(=O)N[C@@H](C)C(=O)N[C@@H](CCC(=O)O)C(=O)N[C@@H](CCCNC(=N)N)C(=O)N[C@@H](CC(=O)O)C(=O)N[C@@H](CC(C)C)C(=O)N[C@@H](C)C(=O)N[C@@]1(C)CCCC=CCCC[C@@](C)(C(=O)N[C@@H](CC(C)C)C(=O)N[C@H](C(=O)N[C@@H](CC(N)=O)C(=O)N[C@@H](CCC(=O)O)C(=O)N[C@@H](CO)C(=O)N[C@@H](CCC(=O)O)C(=O)N[C@@H](CCCCN)C(=O)N[C@@H](CCCNC(=N)N)C(N)=O)C(C)C)NC(=O)[C@H](CO)NC(=O)[C@H](CCCCN)NC(=O)[C@H](C(C)C)NC1=O
B2: SP34 (peptide)
peptide: Ac-RDLANVK[S5]S[Nle]V[S5]ES-NH2
modifications: staple 8-12
SMILES: CCCC[C@@H]1NC(=O)[C@H](CO)NC(=O)[C@@](C)(NC(=O)[C@H](CCCCN)NC(=O)[C@@H](NC(=O)[C@H](CC(N)=O)NC(=O)[C@H](C)NC(=O)[C@H](CC(C)C)NC(=O)[C@H](CC(=O)O)NC(=O)[C@H](CCCNC(=N)N)NC(C)=O)C(C)C)CCCC=CCCC[C@@](C)(C(=O)N[C@@H](CCC(=O)O)C(=O)N[C@@H](CO)C(N)=O)NC(=O)[C@H](C(C)C)NC1=O
notes: also called Ac-RDLANVK$SNleV$ES-NH2
B3: SP4 (peptide)
peptide: Ac-RNLADVK[S5]SLV[S5]ES-NH2
modifications: staple 8-12
SMILES: CC(=O)N[C@@H](CCCNC(=N)N)C(=O)N[C@@H](CC(N)=O)C(=O)N[C@@H](CC(C)C)C(=O)N[C@@H](C)C(=O)N[C@@H](CC(=O)O)C(=O)N[C@H](C(=O)N[C@@H](CCCCN)C(=O)N[C@@]1(C)CCCC=CCCC[C@@](C)(C(=O)N[C@@H](CCC(=O)O)C(=O)N[C@@H](CO)C(N)=O)NC(=O)[C@H](C(C)C)NC(=O)[C@H](CC(C)C)NC(=O)[C@H](CO)NC1=O)C(C)C
notes: also called Ac-RNLADVK$SLV$ES-NH2
B4: SP33 (peptide)
peptide: Ac-RDLANVV[S5]SLV[S5]ES-NH2
modifications: staple 8-12
SMILES: CC(=O)N[C@@H](CCCNC(=N)N)C(=O)N[C@@H](CC(=O)O)C(=O)N[C@@H](CC(C)C)C(=O)N[C@@H](C)C(=O)N[C@@H](CC(N)=O)C(=O)N[C@H](C(=O)N[C@H](C(=O)N[C@@]1(C)CCCC=CCCC[C@@](C)(C(=O)N[C@@H](CCC(=O)O)C(=O)N[C@@H](CO)C(N)=O)NC(=O)[C@H](C(C)C)NC(=O)[C@H](CC(C)C)NC(=O)[C@H](CO)NC1=O)C(C)C)C(C)C
notes: also called Ac-RDLANVV$SLV$ES-NH2
B5: SP9 (peptide)
peptide: Ac-RDL[S5]NVK[S5]SLVNES-NH2
modifications: staple 4-8
SMILES: CC(=O)N[C@@H](CCCNC(=N)N)C(=O)N[C@@H](CC(=O)O)C(=O)N[C@@H](CC(C)C)C(=O)N[C@@]1(C)CCCC=CCCC[C@@](C)(C(=O)N[C@@H](CO)C(=O)N[C@@H](CC(C)C)C(=O)N[C@H](C(=O)N[C@@H](CC(N)=O)C(=O)N[C@@H](CCC(=O)O)C(=O)N[C@@H](CO)C(N)=O)C(C)C)NC(=O)[C@H](CCCCN)NC(=O)[C@H](C(C)C)NC(=O)[C@H](CC(N)=O)NC1=O
notes: also called Ac-RDL$NVK$SLVNES-NH2
B6: SP32 (peptide)
peptide: Ac-RDLANVI[S5]SLV[S5]ES-NH2
modifications: staple 8-12
SMILES: CC[C@H](C)[C@H](NC(=O)[C@@H](NC(=O)[C@H](CC(N)=O)NC(=O)[C@H](C)NC(=O)[C@H](CC(C)C)NC(=O)[C@H](CC(=O)O)NC(=O)[C@H](CCCNC(=N)N)NC(C)=O)C(C)C)C(=O)N[C@@]1(C)CCCC=CCCC[C@@](C)(C(=O)N[C@@H](CCC(=O)O)C(=O)N[C@@H](CO)C(N)=O)NC(=O)[C@H](C(C)C)NC(=O)[C@H](CC(C)C)NC(=O)[C@H](CO)NC1=O
notes: also called Ac-RDLANVI$SLV$ES-NH2
B7: SP35 (peptide)
peptide: Ac-RGLANVK[S5]SLV[S5]ES-NH2
modifications: staple 8-12
SMILES: CC(=O)N[C@@H](CCCNC(=N)N)C(=O)NCC(=O)N[C@@H](CC(C)C)C(=O)N[C@@H](C)C(=O)N[C@@H](CC(N)=O)C(=O)N[C@H](C(=O)N[C@@H](CCCCN)C(=O)N[C@@]1(C)CCCC=CCCC[C@@](C)(C(=O)N[C@@H](CCC(=O)O)C(=O)N[C@@H](CO)C(N)=O)NC(=O)[C@H](C(C)C)NC(=O)[C@H](CC(C)C)NC(=O)[C@H](CO)NC1=O)C(C)C
notes: also called Ac-RGLANVK$SLV$ES-NH2
B8: SP2 (peptide)
peptide: Ac-RDLADVK[S5]SLV[S5]ES-NH2
modifications: staple 8-12
SMILES: CC(=O)N[C@@H](CCCNC(=N)N)C(=O)N[C@@H](CC(=O)O)C(=O)N[C@@H](CC(C)C)C(=O)N[C@@H](C)C(=O)N[C@@H](CC(=O)O)C(=O)N[C@H](C(=O)N[C@@H](CCCCN)C(=O)N[C@@]1(C)CCCC=CCCC[C@@](C)(C(=O)N[C@@H](CCC(=O)O)C(=O)N[C@@H](CO)C(N)=O)NC(=O)[C@H](C(C)C)NC(=O)[C@H](CC(C)C)NC(=O)[C@H](CO)NC1=O)C(C)C
notes: also called Ac-RDLADVK$SLV$ES-NH2
B9: SP10 (peptide)
peptide: Ac-SAERDL[S5]DVK[S5]SLVNESEKR-NH2
modifications: staple 7-11
SMILES: CC(=O)N[C@@H](CO)C(=O)N[C@@H](C)C(=O)N[C@@H](CCC(=O)O)C(=O)N[C@@H](CCCNC(=N)N)C(=O)N[C@@H](CC(=O)O)C(=O)N[C@@H](CC(C)C)C(=O)N[C@@]1(C)CCCC=CCCC[C@@](C)(C(=O)N[C@@H](CO)C(=O)N[C@@H](CC(C)C)C(=O)N[C@H](C(=O)N[C@@H](CC(N)=O)C(=O)N[C@@H](CCC(=O)O)C(=O)N[C@@H](CO)C(=O)N[C@@H](CCC(=O)O)C(=O)N[C@@H](CCCCN)C(=O)N[C@@H](CCCNC(=N)N)C(N)=O)C(C)C)NC(=O)[C@H](CCCCN)NC(=O)[C@H](C(C)C)NC(=O)[C@H](CC(=O)O)NC1=O
B10: SP12 (peptide)
peptide: Ac-SAERDLADVK[S5]SLV[S5]ESEKR-NH2
modifications: staple 11-15
SMILES: CC(=O)N[C@@H](CO)C(=O)N[C@@H](C)C(=O)N[C@@H](CCC(=O)O)C(=O)N[C@@H](CCCNC(=N)N)C(=O)N[C@@H](CC(=O)O)C(=O)N[C@@H](CC(C)C)C(=O)N[C@@H](C)C(=O)N[C@@H](CC(=O)O)C(=O)N[C@H](C(=O)N[C@@H](CCCCN)C(=O)N[C@@]1(C)CCCC=CCCC[C@@](C)(C(=O)N[C@@H](CCC(=O)O)C(=O)N[C@@H](CO)C(=O)N[C@@H](CCC(=O)O)C(=O)N[C@@H](CCCCN)C(=O)N[C@@H](CCCNC(=N)N)C(N)=O)NC(=O)[C@H](C(C)C)NC(=O)[C@H](CC(C)C)NC(=O)[C@H](CO)NC1=O)C(C)C
B11: SP22 (peptide)
peptide: Ac-SA[S5]RDL[S5]DVKSSLVNESEKR-NH2
modifications: staple 3-7
SMILES: CC(=O)N[C@@H](CO)C(=O)N[C@@H](C)C(=O)N[C@@]1(C)CCCC=CCCC[C@@](C)(C(=O)N[C@@H](CC(=O)O)C(=O)N[C@H](C(=O)N[C@@H](CCCCN)C(=O)N[C@@H](CO)C(=O)N[C@@H](CO)C(=O)N[C@@H](CC(C)C)C(=O)N[C@H](C(=O)N[C@@H](CC(N)=O)C(=O)N[C@@H](CCC(=O)O)C(=O)N[C@@H](CO)C(=O)N[C@@H](CCC(=O)O)C(=O)N[C@@H](CCCCN)C(=O)N[C@@H](CCCNC(=N)N)C(N)=O)C(C)C)C(C)C)NC(=O)[C@H](CC(C)C)NC(=O)[C@H](CC(=O)O)NC(=O)[C@H](CCCNC(=N)N)NC1=O

target: T1, C-terminally 6x Histidine-tagged …; test: competitive fluorescence polarization, FAM-labelled linear probe as competitor, His-tagged beta-catenin 134-668
Method: The following experiments are performed at room temperature unless otherwise noted. First, an assay buffer is prepared composed of 25 mM Tris-Hcl pH 7.5, 200 mM Sodium Chloride, and 5 mM CHAPS. Next, 1M DTT is added to assay buffer to a final concentration of 2 mM. […] Forty μl of this protein stock is added to all but six wells of a 96 well plate (which will serve as the free peptide and Blank). Test competitor peptides are diluted from 1 mM DMSO stocks to 2× working stocks in assay buffer. Further dilutions are made in assay buffer-DMSO as to maintain a constant DMSO concentration in all wells. The dilution is carried out such that the peptides have a working concentration range of 40 μM-0.7 μM (2×). As a benchmark, a linear, non-crosslinked peptide competitor is prepared as above but with a working concentration range of 13-0.7 μM. Fifty μl of the competitor 2× stocks are added to the 40 μl of protein solution previously transferred into the assay 96 well plate. Next, a 10× stock of the fluorescent probe is prepared. The probe is identical to the linear benchmark peptide except for the n-terminal conjugation of a FAM flourophore with Beta-Alanine spacer. A 1 mM DMSO stock of the probe is serially diluted to a final concentration of 25 nM (10×) and 10 μl of this stock is added to all wells except for those that will serve as the blank. The assay plate is stored in the dark and the reaction is allowed to run at room temperature for three hours. The reaction is then read on a Biotek Synergy 2 with the following settings: 100 ms delay, 40 measurements per well, with excitation filters of […], and emission filters of […]. Data is then analyzed in Graphpad Prism.

Row | IC50 | Binder
1 | ≥ 100 µM | B1
2 | ≥ 100 µM | B2
3 | ≥ 100 µM | B3
4 | ≥ 100 µM | B4
5 | ≥ 100 µM | B5
6 | ≥ 100 µM | B6
7 | ≥ 100 µM | B7
8 | ≥ 100 µM | B8
9 | ≥ 100 µM | B9
10 | 85 µM | B10
11 | ≥ 100 µM | B11
